The target in experiment [1] is RCD1-SRO-TAF4 (RST) domain from Radical-Induced Cell Death1, RCD1-RST_(499-572) (UniProt Q8RY59). Briefly: ITC.
In experiment [2] the target is T1, RCD1-SRO-TAF4 (RST) domain from Radical-Induced Cell Death1, RCD1-RST_(499-572) (UniProt Q8RY59 499-572).
T1 sequence (looked up): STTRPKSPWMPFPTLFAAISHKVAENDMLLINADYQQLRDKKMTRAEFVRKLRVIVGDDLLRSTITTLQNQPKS
As to the kind of experiment: ITC.

In turn, “D-DREB2A_(255-272) peptide, D-enantiomer (from UniProt O82132 255-272)” returned a fold difference in Kd against L-DREB2A in experiment [1] of 72 fold.
“D-ANAC013_(254-274) peptide, D-enantiomer (from UniProt F4IED2 254-274)”: in experiment [1], the fold difference in Kd against L-ANAC013 turned out to be 500 fold.
“D-ANAC046_(319-338) peptide, D-enantiomer (from UniProt Q9SQQ6 319-338)”: the fold difference in Kd against L-ANAC046 in experiment [1] was determined as 15 fold.

B1: L-ANAC046_(319-338) peptide (peptide, UniProt Q9SQQ6 319-338, looked up)
peptide: SKSACDGLDDLIFWEDLYTS
Turning to B1, the binding result in experiment [2] is recorded as “binds”.

B2: L-ANAC013_(254-274) peptide (peptide, UniProt F4IED2 254-274, looked up)
peptide: NLEEDMYLEINDLMEPEPEPT
B2: the binding result in experiment [2] was “binds”.

B3: L-DREB2A_(255-272) peptide (peptide, UniProt O82132 255-272, looked up)
peptide: SSDMFDVDELLRDLNGDD
For B3, in experiment [2], the binding result is on record as “binds”.

For the origin of these results see publication doi:10.1101/2024.02.23.581681 (bioRxiv, 2024).
